Data set [1] concerns T1, Fis (His-tagged) (Pseudomonas putida), ORF:eb421da7.
T1 sequence: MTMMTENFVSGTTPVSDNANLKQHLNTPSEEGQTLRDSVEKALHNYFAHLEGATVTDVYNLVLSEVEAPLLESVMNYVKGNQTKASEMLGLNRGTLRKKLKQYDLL
The data set is described as follows: DNase I footprinting. The conditions noted are these: EMSA: 24 mM Tris/HCl pH 7.5, 50 mM KCl, 10 mM MgCl2, 1 mM CaCl2, 0.1 mM EDTA, 5% glycerol, 0.05 ug/ul BSA, 0.05 ug/ul salmon sperm DNA, 20 min room …. (In general: Mobility shift assays separate free from complexed probe on a gel.)

The test system is the same in data set [2]. The data set is described as follows: EMSA with competition. The note with it: EMSA: 24 mM Tris/HCl pH 7.5, 50 mM KCl, 10 mM MgCl2, 1 mM CaCl2, 0.1 mM EDTA, 5% glycerol, 0.05 ug/ul BSA, 0.05 ug/ul salmon sperm DNA, 20 min room ….

Take “GGTACTTCCCTGCCAGAGCGGCGCTTGCTAGCCACTTCAGGCGGAACTATGTCGATGATCTCTTGACGTTTTTGACGTCAATATTCCGTCTATAACTTTTTGGAATTGCCTGACTGCCAAACTATTGACCTTATACATGCCATCCTAAACAATCGGCAATGTAATGTCACATTGATATTTGTACCTTAGCCAAGCGTTTCGGATCCT (double strand) [lapA Fis-A1/Fis-A2 fragment WT]”: the binding result in data set [1] and in data set [2] was “binds” throughout.

As for “AGGATCCGAAACGCTTGGCTAAGGTACAAATATCAATGTGACATTACATTGCCGATTGTTTAGGATGGCATGTATAAGCTGAATAGTTTGGAGGTCAGGCAATTCCAAAAAGTTATAGACGGAATATTGACGTCAAAAACGTCAAGAGATCATCGACATAGTTCCGCCTGAAGTGGCTAGCAAGCGCCGCTCTGGCAGGGAAGTACC (double strand) [Fis-A1-Fis-A2mut fragment]”, the binding result in data set [2] is reported as “binds more weakly”.

Turning to “TGCTGATAAGGGTTATCACGCCCTGGTGCTGGAGCAGCTGGCCAATGTTCGCCTTGAATCGGTGTTGAGTAAACAATTCTACGTGCTTCATTTTCACCAGACTTAGCGGGGCAATGATTGTTTCATTTTTGATCCAGCCATCATCCGGCTTGTTGCAGCATAGCCTGCCACTCAGCCAAGGCATGCAAGGGCTTTGGGTTCCAGCTTAGTCACTGTCAGTAAACAGGCGCTGGATCCA (double strand) [lapA Fis-A7 fragment WT]”, the binding result in data set [1] and in data set [2] was “binds” in each case.

As to “TTTGGATCCGAGTCACAAGCAGCTATGTGTCGCAAATCAAAGAGATGACCGACGAGTGCGTGAATAATGGTATCCCGATCATTGAAAATCGCTTGCGGAGGCTGACTGGGAGAAGGCAAGAATCCGCACTCTATAGATGAATTTTGACTAACAAGCCACAGATATGCGCCAACAAACCAGCGCCTGTTTACTGACAGTGACTAAGCTGGAACCCAAAGCCCTTGCATGAATTCAA (double strand) [Fis-A5mut-Fis-A6 fragment]”, the binding entry in data set [2] is recorded as “binds more weakly”.

Regarding “TTTGGATCCGAGTCACAAGCAGCTATGTGTCGCAAATCAAAGAGATGACCGACGAGTGCGTGAATAATGGTATCCCGATCATTGAAAATCGCTTGCGGATATTGAATGCAAGAAGGCAAGAATCCGCACTCTATACACGTAGGCCGACTAACAAGCCACAGATATGCGCCAACAAACCAGCGCCTGTTTACTGACAGTGACTAAGCTGGAACCCAAAGCCCTTGCATGAATTCAA (double strand) [Fis-A5-Fis-A6mut fragment]”, the binding result in data set [2] is recorded as “binds more weakly”.

On to “TGCTGATAAGGGTTATCACGCCCTGGTGCTGGAGCAGCTGGCCAATGTTCGCCTTGAATCGGTGTTGAGTAAACAATTCTACGTGCTTCATTTTCACCAGACTTAGCGGGGCAATGATTCTGACAGGCCTGATCCAGCCATCATCCGGCTTGTTGCAGCATAGCCTGCCACTCAGCCAAGGCATGCAAGGGCTTTGGGTTCCAGCTTAGTCACTGTCAGTAAACAGGCGCTGGATCCA (double strand) [Fis-A7mut fragment]”, for which the binding entry in data set [2] was “binds more weakly”.

Consider “TTGAATTCATGCAAGGGCTTTGGGTTCCAGCTTAGTCACTGTCAGTAAACAGGCGCTGGTTTGTTGGCGCATATCTGTGGCTTGTTAGTCAAAATTCATCTATAGAGTGCGGATTCTTGCCTTCTTGCATTCAATATCCGCAAGCGATTTTCAATGATCGGGATACCATTATTCACGCACTCGTCGGTCATCTCTTTGATTTGCGACACATAGCTGCTTGTGACTCGGATCCAAA (double strand) [lapA Fis-A5/Fis-A6 fragment WT]”, for which the binding result in data set [1] and in data set [2] was “binds” each time.

For “AGGATCCGAAACGCTTGGCTAAGGTACAAATATCAATGTGACATTACATTGCCGATTGTTTAGGATGGCATGTATAAGGTCAATAGTTTGGCAGTCAGGCAATTCCAAAAAGTTATAGACGGAATATTGACGTCACCCACGTGCCGAGATCATCGACATAGTTCCGCCTGAAGTGGCTAGCAAGCGCCGCTCTGGCAGGGAAGTACC (double strand) [Fis-A1mut-Fis-A2 fragment]”, the binding entry in data set [2] is reported as “binds more weakly”.

Values taken from paper PMC5612765.
